Laboratory results reported in patent publication US9243034B2, “Glycogen synthase kinase-3 inhibitors” (Ramot at Tel-Aviv University Ltd., priority 2011, dated 2016).
Where no end group is shown, it is not given here. [ ]: non-standard residue; d: D form. The star is where a group is joined. Myristoyl = CCCCCCCCCCCCCC(=O)*; pS = N[C@@H](COP(=O)(O)O)C(=O)O

Experiments:
F93A mutant GSK-3β = biological target: T1, F93A mutant GSK-3β (Homo sapiens, UniProt P49841, F93A); experiment: In vitro kinase assay with F93A mutant in presence or absence of inhibitor; type: biochemical; settings: FIGS. 2B, 2C
T1 construct: made in house; host or cells: HEK-293 (transient transfection, pCMV4 vector; DE-52 partial purification)
Excerpt: (§1) GSK-3β in the pCMV4 vector was used as the template for mutagenesis. Mutations were generated using QuickChange Site Directed Mutagenesis Kit (Stratagene, La Jolla, Calif., USA) according the manufacturer's protocols. Mutations included replacement of D90, K91, R92, F93, K94, V214 to alanine, F93 to tyrosine, and a triple mutation at residues 91-93. All constructs were sequenced to confirm the presence of desired mutations. The sequences of mutagenic oligonucleotides are available from the inventors upon request.
(§2) HEK-293 cells were grown in Dulbecco's Modified Eagle's Medium (DMEM), supplemented with 10% fetal calf serum (FCS), 2 mM glutamine, 100 units/ml penicillin, and 100 μg/ml streptomycin. HEK-293 cells were transiently transfected with indicated constructs, using calcium phosphate method as described [Ilouz et al. (2006) supra]. Cells were lysed in ice-cold buffer G (20 mM Tris-HCl, pH 7.5, 10 mM β-glycerophosphate, 10% glycerol, 1 mM EGTA, 1 mM EDTA, 50 mM NaF, 5 mM sodium pyrophosphate, 0.5 mM orthovanadate, 1 mM benzamidine, 10 μg/ml leupeptin, 5 μg/ml aprotinin, 1 μg/ml pepstatin, and 0.5% Triton X100). Cell extracts were centrifuged for 30 minutes at 15,000×g. […] In all experiments, GSK-3 mutants were expressed at levels at least 5-fold higher than levels of the endogenous GSK-3β as determined by western blot analysis. […]

[1] = test system: GSK-3β mutants Q89A, N95A, R92A, K94A and F93Y; experiment: In vitro kinase assay with other GSK-3β mutants in presence or absence of inhibitor; type: biochemical, human; settings: data not shown
Excerpt: as §1, §2

GSK-3β = biological target: T2, GSK-3β (Homo sapiens, UniProt P49841); experiment: In vitro kinase assay with GSK-3β in the presence of peptide inhibitor; type: biochemical; settings: for Inhibition of WT-GSK-3β compared with L803: 250 μM each, FIGS. 3B, 3C
T2 construct: made in house; host or cells: HEK-293 (transient transfection, pCMV4 vector; DE-52 partial purification)
Protocol: (§3) (0.5 μCi/assay) for 15 minutes.
The ability of each peptide to inhibit GSK-3β was then determined by in vitro kinase assays as described hereinabove.

pGS-1 = experiment: In vitro kinase assay of GSK-3β mutants, substrate pGS-1; type: biochemical; settings: WT set to 100%; mean of 2-3 experiments ± SEM
Protocol: (§4) HEK-293 cells were grown in Dulbecco's Modified Eagle's Medium (DMEM), supplemented with 10% fetal calf serum (FCS), 2 mM glutamine, 100 units/ml penicillin, and 100 μg/ml streptomycin. HEK-293 cells were transiently transfected with indicated constructs, using calcium phosphate method as described [Ilouz et al. (2006) supra]. Cells were lysed in ice-cold buffer G (20 mM Tris-HCl, pH 7.5, 10 mM β-glycerophosphate, 10% glycerol, 1 mM EGTA, 1 mM EDTA, 50 mM NaF, 5 mM sodium pyrophosphate, 0.5 mM orthovanadate, 1 mM benzamidine, 10 μg/ml leupeptin, 5 μg/ml aprotinin, 1 μg/ml pepstatin, and 0.5% Triton X100). Cell extracts were centrifuged for 30 minutes at 15,000×g. Supernatants were collected, and equal amounts of proteins were boiled with SDS sample buffer and subjected to gel electrophoresis (7.5-12% polyacrylamide gel), transferred to nitrocellulose membranes, and immunoblotted with indicated antibodies. For partial purification, cells were lysed in buffer H (20 mM Tris, pH 7.3, 1 mM EGTA, 1 mM EDTA, 1 mM orthovanadate, 25 μg/ml leupeptin, 25 μg/ml aprotinin, and 25 μg/ml pepstatin A, 500 nM microcystine LR, and 0.25% Triton X100). The lysates were centrifuged at 15,000×g. The resulting supernatants were passed through DE-52 (Whatman, Maidstone, England) mini-columns that were equilibrated with buffer H. GSK-3β proteins were eluted with the same buffer containing 0.02 M NaCl. Equal amounts of proteins were used for in vitro kinase assays. In all experiments, GSK-3 mutants were expressed at levels at least 5-fold higher than levels of the endogenous GSK-3β as determined by western blot analysis.
as §3
(§5) The GSK-3β mutants were partially purified by ion exchange chromatography, and their abilities to phosphorylate peptide substrates were tested in in vitro kinase assays. The substrates were: pIRS-1, p9CREB, and pGS-1, phosphorylated peptides derived from the insulin receptor substrate-1 (IRS-1), cAMP responsive element binding protein (CREB), and glycogen synthase, respectively.
(§6) The results are presented in Table 1, as the percentage of substrate phosphorylation (indicated peptides, pIRS-1, p9CREB and pGS-1) obtained with WTGSK-3β which was set to 100%, and are mean of 2-3 independent experiments each performed in duplicates±SEM.

p9CREB = experiment: In vitro kinase assay of GSK-3β mutants, substrate p9CREB; type: biochemical; settings: WT set to 100%; mean of 2-3 experiments ± SEM
Protocol: as §4, §3, §5, §6

pIRS-1 = experiment: In vitro kinase assay of GSK-3β mutants, substrate pIRS-1; type: biochemical; settings: WT set to 100%; mean of 2-3 experiments ± SEM
Protocol: as §4, §3, §5, §6

T2 sequence (P49841 1-433 isoform P49841-2): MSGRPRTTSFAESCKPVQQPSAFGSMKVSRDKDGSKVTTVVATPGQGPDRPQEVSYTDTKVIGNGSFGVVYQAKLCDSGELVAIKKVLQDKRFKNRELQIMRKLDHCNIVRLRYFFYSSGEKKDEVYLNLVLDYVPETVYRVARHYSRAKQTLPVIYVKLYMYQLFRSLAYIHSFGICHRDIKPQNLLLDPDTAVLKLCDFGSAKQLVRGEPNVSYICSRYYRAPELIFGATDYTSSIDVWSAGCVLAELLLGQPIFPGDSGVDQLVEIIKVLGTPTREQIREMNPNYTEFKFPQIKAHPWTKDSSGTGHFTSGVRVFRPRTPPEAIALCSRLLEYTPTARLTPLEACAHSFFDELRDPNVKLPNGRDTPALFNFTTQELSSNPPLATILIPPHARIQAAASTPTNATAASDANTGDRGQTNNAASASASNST
T1 sequence (P49841 1-433 isoform P49841-2 F93A): as the sequence (P49841 1-433 isoform P49841-2) above, with F93A counted along it

Substrate phosphorylation (% of WTGSK-3β), pGS-1 (pGS-1)	Substrate phosphorylation (% of WTGSK-3β), p9CREB (p9CREB)	Substrate phosphorylation (% of WTGSK-3β), pIRS-1 (pIRS-1)	Molecule	further results
			KEAPPAPPQS(p)P (KEAPPAPPQ[pS]P) [L803]	Inhibition of F93A mutated enzyme (F93A mutant GSK-3β): did not inhibit; Inhibition of other GSK-3β mutants [1]: inhibited all other mutants
			L803-mts: L803 in which myristic acid was attached to its N-terminal, cell permeable, SEQ ID NO:5 (Myristoyl-GKEAPPAPPQSP; not fully specified (residue 11))	Inhibition of F93A mutated enzyme (F93A mutant GSK-3β): did not inhibit; Competition with substrates pIRS-1, p9CREB, pGS-1 (GSK-3β; purified GSK-3β, 100 μM, FIG. 2A): competes with various substrates; Inhibition of other GSK-3β mutants [1]: able to inhibit all other mutants
			Lys-Ala-Ala-Pro-Pro-Ala-Pro-Pro-Gln-phosphorylated Ser-Pro [PE2A]	Inhibition of WT-GSK-3β compared with L803 (GSK-3β): slightly impaired
			Lys-Glu-Ala-Pro-Pro-Ala-Pro-Pro-Ala-phosphorylated Ser-Pro [PQ9A]	Increase of inhibition relative to L803 (GSK-3β; 250 μM, FIG. 3B): about two-fold
			Lys-Glu-Ala-Pro-Pro-Ala-Pro-Pro-Pro-phosphorylated Ser-Pro [PQ9P]	Inhibition activity, dose-response comparative plots (GSK-3β; L803, PQ9A and PQ9P compared, FIG. 5): enhanced inhibition activity
			PQ9R: L803 variant, Gln 9 replaced with arginine, SEQ ID NO:14 (KEAPPAPPRSP; PQ9R synthetic peptide)	Inhibition of WT-GSK-3β compared with L803 (GSK-3β): non-inhibitory
			PQ9Y: L803 variant, Gln 9 replaced with tyrosine, SEQ ID NO:15 (KEAPPAPPYSP; PQ9Y synthetic peptide)	Inhibition of WT-GSK-3β compared with L803 (GSK-3β): non-inhibitory
41 ± 14 % of WTGSK-3β	49 ± 19 % of WTGSK-3β	60 ± 3 % of WTGSK-3β	R92A: GSK-3β mutant, R92 replaced by alanine, SEQ ID NO:8 (protein, GSK-3 beta, R92A mutant) MSGRPRTTSFAESCKPVQQPSAFGSMKVSRDKDGSKVTTVVATPGQGPDRPQEVSYTDTKVIGNGSFGVVYQAKLCDSGELVAIKKVLQDKAFKNRELQIMRKLDHCNIVRLRYFFYSSGEKKDEVYLNLVLDYVPETVYRVARHYSRAKQTLPVIYVKLYMYQLFRSLAYIHSFGICHRDIKPQNLLLDPDTAVLKLCDFGSAKQLVRGEPNVSYICSRYYRAPELIFGATDYTSSIDVWSAGCVLAELLLGQPIFPGDSGVDQLVEIIKVLGTPTREQIREMNPNYTEFKFPQIKAHPWTKDSSGTGHFTSGVRVFRPRTPPEAIALCSRLLEYTPTARLTPLEACAHSFFDELRDPNVKLPNGRDTPALFNFTTQELSSNPPLATILIPPHARIQAAASTPTNATAASDANTGDRGQTNNAASASASNST	
83 ± 2 % of WTGSK-3β	92 ± 21 % of WTGSK-3β	88 ± 15 % of WTGSK-3β	D90A: GSK-3β mutant, D90 replaced by alanine, SEQ ID NO:6 (protein, GSK-3 beta, D90A mutant) MSGRPRTTSFAESCKPVQQPSAFGSMKVSRDKDGSKVTTVVATPGQGPDRPQEVSYTDTKVIGNGSFGVVYQAKLCDSGELVAIKKVLQAKRFKNRELQIMRKLDHCNIVRLRYFFYSSGEKKDEVYLNLVLDYVPETVYRVARHYSRAKQTLPVIYVKLYMYQLFRSLAYIHSFGICHRDIKPQNLLLDPDTAVLKLCDFGSAKQLVRGEPNVSYICSRYYRAPELIFGATDYTSSIDVWSAGCVLAELLLGQPIFPGDSGVDQLVEIIKVLGTPTREQIREMNPNYTEFKFPQIKAHPWTKDSSGTGHFTSGVRVFRPRTPPEAIALCSRLLEYTPTARLTPLEACAHSFFDELRDPNVKLPNGRDTPALFNFTTQELSSNPPLATILIPPHARIQAAASTPTNATAASDANTGDRGQTNNAASASASNST	
19 ± 14 % of WTGSK-3β	71 ± 4 % of WTGSK-3β	52 ± 19 % of WTGSK-3β	K94A: GSK-3β mutant, K94 replaced by alanine, SEQ ID NO:10 (protein, GSK-3 beta, K94A mutant) MSGRPRTTSFAESCKPVQQPSAFGSMKVSRDKDGSKVTTVVATPGQGPDRPQEVSYTDTKVIGNGSFGVVYQAKLCDSGELVAIKKVLQDKRFANRELQIMRKLDHCNIVRLRYFFYSSGEKKDEVYLNLVLDYVPETVYRVARHYSRAKQTLPVIYVKLYMYQLFRSLAYIHSFGICHRDIKPQNLLLDPDTAVLKLCDFGSAKQLVRGEPNVSYICSRYYRAPELIFGATDYTSSIDVWSAGCVLAELLLGQPIFPGDSGVDQLVEIIKVLGTPTREQIREMNPNYTEFKFPQIKAHPWTKDSSGTGHFTSGVRVFRPRTPPEAIALCSRLLEYTPTARLTPLEACAHSFFDELRDPNVKLPNGRDTPALFNFTTQELSSNPPLATILIPPHARIQAAASTPTNATAASDANTGDRGQTNNAASASASNST	
119 ± 5 % of WTGSK-3β	161 ± 5 % of WTGSK-3β	140 ± 18 % of WTGSK-3β	K91A: GSK-3β mutant, K91 replaced by alanine, SEQ ID NO:7 (protein, GSK-3 beta, K91A mutant) MSGRPRTTSFAESCKPVQQPSAFGSMKVSRDKDGSKVTTVVATPGQGPDRPQEVSYTDTKVIGNGSFGVVYQAKLCDSGELVAIKKVLQDARFKNRELQIMRKLDHCNIVRLRYFFYSSGEKKDEVYLNLVLDYVPETVYRVARHYSRAKQTLPVIYVKLYMYQLFRSLAYIHSFGICHRDIKPQNLLLDPDTAVLKLCDFGSAKQLVRGEPNVSYICSRYYRAPELIFGATDYTSSIDVWSAGCVLAELLLGQPIFPGDSGVDQLVEIIKVLGTPTREQIREMNPNYTEFKFPQIKAHPWTKDSSGTGHFTSGVRVFRPRTPPEAIALCSRLLEYTPTARLTPLEACAHSFFDELRDPNVKLPNGRDTPALFNFTTQELSSNPPLATILIPPHARIQAAASTPTNATAASDANTGDRGQTNNAASASASNST	
